The numbers were not newly measured in article PMC10584158, which cites them from elsewhere.

In general, Kd refers to the concentration at which binding is half-saturated.

For the data set, the target named is IL-6 (Homo sapiens) (UniProt P05231).
Sequence of IL-6 (Homo sapiens) (P05231 30-212): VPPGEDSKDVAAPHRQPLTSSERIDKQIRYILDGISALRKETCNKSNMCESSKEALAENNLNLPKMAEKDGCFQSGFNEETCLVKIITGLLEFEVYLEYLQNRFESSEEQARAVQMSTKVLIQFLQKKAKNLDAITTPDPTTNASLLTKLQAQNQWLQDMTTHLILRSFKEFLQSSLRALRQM

Consider Clazakizumab, for which the Kd was 4 pM.
